Experimental findings from PMC10572585 are described below.

The series concerns MBP-CPEB. Briefly: EMSA. To be noted: 10 mM HEPES-KOH pH 7.9, 50 mM KCl, 1 mM MgCl2, 0.1 mM ZnCl2, 0.1% NP-40, 1 mM DTT, 2 ug yeast tRNA, 2 ug BSA, 12 U RNaseOUT, 10 uL, 15 fmol RNA, room ….

For the substance “c-myc 3'UTR pA2 wild type (cCPE + ncCPE1 + ncCPE2)”, the Kd (two CPEB molecules bound (second shift)) stood at 279 nM.

For “c-myc pA2 cCPE only (ncCPE1 and ncCPE2 mutated)”, the Kd was 212 nM. Still for that read-out and setting: under “c-myc pA2 ncCPE1 only (cCPE and ncCPE2 mutated)” stands 890 nM. Regarding c-myc pA2 ncCPE1/2 (cCPE mutated), the Kd (no second CPEB binding) is 891 nM. Take “c-myc pA2 ncCPE2 only (cCPE and ncCPE1 mutated)”: where the note is “low affinity, Kd lower bound”, the Kd was > 1000 nM.
